According to US11833164B2, “Methods of treating Fabry disease in patients having a mutation in the GLA gene” (Amicus Therapeutics, Inc., priority 2019, dated 2023):
Positions count from the first letter of the chain named. Numbers in names are those of the source.

B1: A309D (protein)
chain: MQLRNPELHLGCALALRFLALVSWDIPGARALDNGLARTPTMGWLHWERFMCNLDCQEEPDSCISEKLFMEMAELMVSEGWKDAGYEYLCIDDCWMAPQRDSEGRLQADPQRFPHGIRQLANYVHSKGLKLGIYADVGNKTCAGFPGSFGYYDIDAQTFADWGVDLLKFDGCYCDSLENLADGYKHMSLALNRTGRSIVYSCEWPLYMWPFQKPNYTEIRQYCNHWRNFADIDDSWKSIKSILDWTSFNQERIVDVAGPGGWNDPDMLVIGNFGLSWNQQVTQMALWAIMAAPLFMSNDLRHISPQAKDLLQDKDVIAINQDPLGKQGYQLRQGDNFEVWERPLSGLAWAVAMINRQEIGGPRSYTIAVASLGKGVACNPACFITQLLPVKRKLGFYEWTSRLRSHINPTGTVLLQLENTMQMSLKDLL
B2: K314M (protein)
chain: B1 chain with D309A, K314M
B3: L310I (protein)
chain: B1 chain with D309A, L310I
B4: A309T (protein)
chain: B1 chain with D309T
B5: K314N (protein)
chain: B1 chain with D309A, K314N
B6: D315H (protein)
chain: B1 chain with D309A, D315H
B7: Q312L (protein)
chain: B1 chain with D309A, Q312L
B8: D315A (protein)
chain: B1 chain with D309A, D315A
B9: K314E (protein)
chain: B1 chain with D309A, K314E
B10: Q312K (protein)
chain: B1 chain with D309A, Q312K
B11: Q312E (protein)
chain: B1 chain with D309A, Q312E
B12: K314T (protein)
chain: B1 chain with D309A, K314T
B13: D313E (protein)
chain: B1 chain with D309A, D313E
B14: D315G (protein)
chain: B1 chain with D309A, D315G
B15: D313V (protein)
chain: B1 chain with D309A, D313V
B16: L311I (protein)
chain: B1 chain with D309A, L311I

System: mutant form of α-Gal A expressed in HEK-293 cells
Assay: HEK assay (GLP HEK / Migalastat Amenability Assay): α-Gal A activity in lysates of transiently transfected HEK-293 cells incubated with or without 10 μM migalastat
Format: cell-based, human
Conditions: for Absolute increase (% WT) / Relative increase: 10 μM migalastat versus baseline; for Baseline α-Gal A activity (% WT): absence of migalastat; for Baseline α-Gal A activity (% WT) / 10 μM migalastat α-Gal A activity (% WT): percentage of baseline wild-type α-Gal A activity; for Baseline α-Gal A activity (% WT) / Baseline α-Gal A activity / 10 μM migalastat α-Gal A activity / 10 μM migalastat α-Gal A activity (% WT): mean ± SEM; for Baseline α-Gal A activity / 10 μM migalastat α-Gal A activity: lysates of HEK-293 cells transiently transfected with the mutant form; for Baseline α-Gal A activity: incubated 5 days in absence of migalastat; for 10 μM migalastat α-Gal A activity: incubated 5 days with 10 μM migalastat; for 10 μM migalastat α-Gal A activity (% WT): with 10 μM migalastat, 5 days
Outline: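 HEK-293 cells transiently transfected with mutant α-Gal A and incubated with or without 10 μM migalastat; lysate activity given as nmol free 4-MU released per mg protein per hour. Values are mean±SEM.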

| Molecule | Absolute increase (% WT) | Relative increase | Baseline α-Gal A activity (% WT) | Baseline α-Gal A activity [nmol/mg/h] | 10 μM migalastat α-Gal A activity [nmol/mg/h] | 10 μM migalastat α-Gal A activity (% WT) |
| --- | --- | --- | --- | --- | --- | --- |
| B1 | 17.6 | 1.2 | 78.3 ± 5.2 | 31696 ± 3036 | 38325 ± 2376 | 95.8 ± 3.7 |
| B2 | 15.9 | 1.3 | 50.9 ± 3.8 | 18231 ± 2878 | 23043 ± 2838 | 66.8 ± 3.8 |
| B3 | 19.6 | 1.3 | 72.8 ± 3.6 | 31871 ± 2599 | 40310 ± 3345 | 92.4 ± 5.1 |
| B4 | 18.6 | 1.2 | 74.1 ± 4.6 | 29214 ± 1907 | 36228 ± 1841 | 92.7 ± 4.8 |
| B5 | 10.8 | 1.2 | 39.1 ± 3.4 | 14205 ± 2418 | 17364 ± 2225 | 49.9 ± 2.6 |
| B6 | 17.4 | 1.4 | 35.7 ± 2.8 | 9791 ± 1077 | 14136 ± 1573 | 53.2 ± 5.5 |
| B7 | 21.3 | 1.4 | 50.1 ± 4.1 | 16986 ± 1428 | 23967 ± 1400 | 71.5 ± 4.6 |
| B8 | 25.1 | 1.3 | 68.3 ± 4.8 | 18519 ± 1370 | 24758 ± 1512 | 93.4 ± 7 |
| B9 | 11.0 | 1.3 | 37.7 ± 2.5 | 13026 ± 1767 | 16765 ± 2098 | 48.7 ± 2.8 |
| B10 | 15.5 | 1.8 | 19.7 ± 1.4 | 6733 ± 510 | 11934 ± 624 | 35.2 ± 1.8 |
| B11 | 15.1 | 4.6 | 4.1 ± 0.2 | 1365 ± 57 | 6331 ± 466 | 19.2 ± 1.7 |
| B12 | 17.9 | 1.2 | 75.9 ± 4.4 | 25162 ± 2701 | 30501 ± 2332 | 93.8 ± 4.5 |
| B13 | 13.2 | 1.3 | 42.5 ± 2.3 | 14321 ± 1579 | 18273 ± 1330 | 55.7 ± 1.9 |
| B14 | 23.6 | 1.4 | 49.7 ± 3.7 | 13326 ± 859 | 19115 ± 1697 | 73.3 ± 8 |
| B15 | 6.7 | 3.9 | 2.9 ± 0.2 | 894 ± 33 | 3480 ± 580 | 9.6 ± 0.9 |
| B16 | 23.2 | 2.9 | 12.1 ± 0.8 | 4020 ± 235 | 11558 ± 781 | 35.3 ± 3.1 |
